{"source": "paper PMC4497506", "about": "(Journal of medicinal chemistry, 2015)", "binders": {"B1": {"name": "mAb F105 (antibody, V domains shown)", "VH": "QVQLQESGPGLVKPSETLSLTCTVSGGSISSHYWSWIRQSPGKGLQWIGYIYYSGSTNYSPSLKSRVTISVETAKNQFSLKLTSMTAADTAVYYCARGPVPAVFYGDYRLDPWGQGTLVTVSS", "VL": "EIVLTQSPGTLSLSAGERATLSCRASQSVSSRYLAWYQQKPGQAPRLLIYGASSRATGIPDRFSGSGSGTDFTLTISRVEPEDFAVYYCQQYDNSVCTFGQGTKLEIK"}}, "target": "wild-type HIV-1 YU-2 Env gp120, soluble monomeric (HIV-1 YU-2, UniProt P35961)", "data": [{"binder": "B1", "values": [{"measurement": "Kd", "value": 24, "unit": "nM"}]}]}
